{"source": "paper PMC2845155", "tested_on": "CC(=O)N[C@H]1[C@@H]2OC[C@@H](O2)[C@@H](O)[C@@H]1O[C@H](C)C(=O)N[C@@H](C)C(=O)N[C@H](CCC(=O)N[C@@H](CCC[C@@H](N)C(=O)O)C(=O)O)C(=O)O", "experiment": "LC/MS of substrate consumption or product formation, nonlinear regression", "type": "biochemical, Citrobacter freundii", "details": "pH 7.0, hydrolysis at lactyl amide bond"}
{"substance": "AmpD (Citrobacter freundii)", "values": [{"measurement": "Km", "value": "360 ± 10", "unit": "µM"}, {"measurement": "kcat", "value": "25 ± 2", "unit": "s⁻¹"}, {"measurement": "kcat/Km", "value": "69000 ± 4000", "unit": "M⁻¹ s⁻¹"}]}
